Data on three substances can be found in patent US20150313990A1.

Test [1] deals with native HIV-1 BaL envelope trimers on the surface of persistently infected human T cells (PM1) (HIV-1 BaL). Description: flow cytometry on infected PM1 cells pre-incubated with sCD4 5 µg/ml (competitor, two-domain by the panel header) before PG9.
Test [2] shares this target.
The target is the same in test [3]. The experiment in a line: flow cytometry on infected PM1 cells pre-incubated with control buffer, PE anti-human IgG; panel header 'PM1 HT-pg9 25'.
The target of test [4] is BaL Pro 2.0 (HIV-1 BaL gp160 with a proline inserted between Tyr 173 and Ala 174) on HeLa cells (HIV-1 BaL).
Test [5] has as its target wild-type full-length HIV-1 BaL envelope glycoprotein gp160 expressed on the surface of HeLa cells (untreated) (HIV-1 BaL).

With “monoclonal antibody PG9 (directed to the α-helix-containing region of V2; trimer-preferring)”, the change of the MFI with sCD4 in test [1] is -58%. Further, the MFI in test [2] was 2220. The substance further showed a Mean fluorescence intensity (MFI) in test [3] of 5210.
With NC human, the values for the Geom. Mean, Comp-PE-A (in test [4]; in test [5]; in the test with ΔV1V2) were 129, 139 and 152, respectively.
Take antibody 48d (CD4-induced epitope): the Geom. Mean, Comp-PE-A in test [4] stood at 244; in test [5], 484; with ΔV1V2, 240.
